Reference: patent US20260250338A1

Key:
[1] = molecular target: HER2 on SKOV3 cells (human) (UniProt P04626); assay: flow cytometry on SKOV3 cells, isotype ctrl PerCP/Cy5.5
[2] = molecular target: HER2 on JIMT-1 cells (human) (UniProt P04626); assay: flow cytometry on JIMT-1 cells, isotype ctrl PerCP/Cy5.5
[3] = molecular target: HER2 on HT29 cells (human) (UniProt P04626); assay: flow cytometry on HT29 cells, isotype ctrl PerCP/Cy5.5
[4] = molecular target: HER2 on MDA-MB-175 cells (human) (UniProt P04626); assay: flow cytometry on MDA-MB-175 cells, isotype ctrl PerCP/Cy5.5
[5] = molecular target: HER2 on MDA-MB-231 cells (human) (UniProt P04626); assay: flow cytometry on MDA-MB-231 cells, isotype ctrl PerCP/Cy5.5
[6] = molecular target: HER2 on SKOV3 cells (human) (UniProt P04626); assay: flow cytometry on SKOV3 cells, anti-HER2 PerCP/Cy5.5 at 1:20
[7] = molecular target: HER2 on JIMT-1 cells (human) (UniProt P04626); assay: flow cytometry on JIMT-1 cells, anti-HER2 PerCP/Cy5.5 at 1:20
[8] = molecular target: HER2 on HT29 cells (human) (UniProt P04626); assay: flow cytometry on HT29 cells, anti-HER2 PerCP/Cy5.5 at 1:20
[9] = molecular target: HER2 on MDA-MB-175 cells (human) (UniProt P04626); assay: flow cytometry on MDA-MB-175 cells, anti-HER2 PerCP/Cy5.5 at 1:20
[10] = molecular target: HER2 on MDA-MB-231 cells (human) (UniProt P04626); assay: flow cytometry on MDA-MB-231 cells, anti-HER2 PerCP/Cy5.5 at 1:20
[11] = molecular target: full length human CD16b stably expressed on transduced WT Jurkat cells (human) (UniProt O75015); assay: flow cytometry on CD16b-transduced WT Jurkat cells stained with anti-CD16 (axis printed VL1-A :: CD16-eFluor 450-A)
Sequence of full length human CD16b stably expressed on transduced WT Jurkat cells (human) (O75015 17-200): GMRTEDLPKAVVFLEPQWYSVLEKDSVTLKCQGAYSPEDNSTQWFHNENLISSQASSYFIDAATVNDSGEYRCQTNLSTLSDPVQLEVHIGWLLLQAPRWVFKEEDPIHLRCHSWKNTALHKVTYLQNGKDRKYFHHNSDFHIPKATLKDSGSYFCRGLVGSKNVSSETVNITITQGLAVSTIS

**Q.** What does the source list for “iso ctrl (Isotype ctrl PerCP/Cy5.5 antibody)”?
**A.** Median : BL3-A [1]: 491; Median : BL3-A [2]: 306; Median : BL3-A [3]: 361; Median : BL3-A [4]: 331; Median : BL3-A [5]: 520

**Q.** How did the Median : BL3-A [6] turn out when “HER2 (Anti-Her2 PerCP/Cy5.5, BioLegend #324416) (antibody)” was run?
**A.** 25400

**Q.** What about the Median : BL3-A [7] of the same substance?
**A.** 10300

**Q.** What about the Median : BL3-A [8] of the same substance?
**A.** 2230

**Q.** What about the Median : BL3-A [9] of the same substance?
**A.** 6860

**Q.** And the Median : BL3-A [10]?
**A.** 1240

**Q.** With “CD16-BV421 (BV421 mouse anti-human CD16 clone 3G8, BD Biosciences) (antibody)” as the substance, how does the CD16 gate (percent of cells) [11] read?
**A.** 100
